Test: soluble on expression in E. coli; label from the status in PepcDB or PDB records

Sequence: MCMVKVWVEKLLDEPELYILRLDDSEIKHFEAAWSIPEGITYNAYLMKVGDAVVLFDTWKGEYTEKFLESLSTLVDPKEITHIIVHHTEPDHSGALPKLLELNEYRAKLIGTTFAKNLLQGFYGDKVVENFHTIKDGEEVKIGNRTFRFITVPWLHWPDTMITYDVEDKLIFSCDAGGGYGIPEAIDDSDEDVVKKYLPYVTKYIVTVIGHYHKYIVQNIKKLKELGIIENANMILPGHGLIWRKSPTRIFEHYERVGAGIPTKDKVLVIYDSMYGFVEKRMSVVIEELKRYGKKPVVYRFTDKENPAISDILGEVPDSEALVIGVSTYEADIHPRMRCALYEILDKANYEKPVLIVGAFGWGGVAGKKVETLISRSKFELVDVVETKGRMTSEDEERLREAVRKLIQWQL
- soluble on expression in E. coli: soluble

Sequence: MAHHHHHHMVLTSDRGWPYSWERGESGILPDCYLNSEVERVWQIVKKDLTKLFSSHGKNKPSCHPRVLIGTPGIGKSMNVGSYLLYQLLHYDVEQLPMVVYFIANLTFLFDKTAKMVSLYTNEASILRILDGLPDRGFKGHIIYDVAMKGHQPSIGLPCKGWGMIVVTPPDKNNHEWWAKQMGAEEFIINCPEENDVRAMCIWMKRNRPLQEQAEYWKEVNGRMNKVGPILRFIFGKQAYDDRIKACQQALDGMNASKFEGYLDIGYCCVSNDSDLSRKLVKVVRVRRGYNFASPLNVLISPHLERETLSRLEDGMKQSDFIFFVLRFWDYVPPYLIEKYAVSAFLNDDFLRAIRLKIKELWPPGRRESHRCALKEHSDTSFARKEVLPPPERLSNPVAMDHWVLYEPKVQNFPLVDGFFFVDSNPKTLVGLRMTTAGGHRTTTRTVRRFTE
- soluble on expression in E. coli: not soluble

Sequence: MVSRLARLARRVGRKLKALTPTPKTPEPPSLPLILDAPVAPGFTTAREVWCAPGFGVVVDAGGQVLGGAARQALGFSPDLAALPGVRVSDGGSRLILPEGAPRLARGAVVAGWGDLRNYAGFVLNTLPALVEASKAGVLADHPLVTPPLTRWQADLLTLAGLASPLINAAPWVVLDEAVLSPPPSPVATHAMLAEVRERVLATPGPASGARPKLYVSRADAMNAVMVDEEGVEIELAALGYTIVRPETSSTRELIGLFREAKVIVAPTGTVLANALFCAADAQIVEIRPPGANGLWVRDLAVLAGATWHGFDAPGEKEAPGAPLDPALPPASAFGWRADAAALLAFLAQRSLEHHHHHH
- soluble on expression in E. coli: not soluble

Sequence: MGSDKIHHHHHHMNYTFELKELQATHIVYLHHQGDISLIPSSIRKLMQWAGPKGLINGPANKLISVYQHEGKVLSVDIGLTVPQEVEGESEISKGLLSGGLYAIGHFEIGTDEIPAAWSLMYTLTSKHQCKPCAGKSFEIYQSIPLDQHPQDKCMIDLCIPVQMIDLKLIEEKAISILTECDTAMLASVTEEGYPRPVPMGKIKADGISQIWFSTGTFSDKTIQFQLNPKAGVCFMKGGDSIVLTGKVEIVSDMEIKKALWSDWMFAHFPGGVIDPSYCILKFTSEEATYWIDNEFVKASI
- soluble on expression in E. coli: not soluble

Sequence: MAAQESLHVKTPLRDSMALSKVAGTSVFLKMDSSQPSGSFKIRGIGHLCKMKAKQGCKHFVCSSAGNAGMATAYAARRLGLPATIVVPSTTPALTIERLKNEGATVEVVGEMLDEAIQLAKALEKNNPGWVYISPFDDPLIWEGHTSLVKELKETLSAKPGAIVLSVGGGGLLCGVVQGLREVGWEDVPIIAMETFGAHSFHAAVKEGKLVTLPKITSVAKALGVNTVGAQTLKLFYEHPIFSEVISDQEAVTAIEKFVDDEKILVEPACGAALAAVYSGVVCRLQAEARLQTPLASLVVIVCGGSNISLAQLQALKAQLGLNELLK
- soluble on expression in E. coli: soluble

Sequence: MESSKKTSRSRSTTQEAVRDIKKYIRDNRLRTGDLLPSEAFLCEELGCSRSAIREAIRALVTLDIVEVRHGYGTFVSRMSLEPLINGMVFRTVLDNDTSVENLFYVVDTREILDLSLGEELIEVFTDDDRELLLDLVDKMREHNDQGESFVVEDQKFHRALLARTKNPLIRELNDAFWQIQTEAQPMLNLAMPADIDETIKAHSDIVEALSSGNIDDYRSAVLAHYAPFRRMISNMLDAH
- soluble on expression in E. coli: not soluble

Sequence: MGSDKIHHHHHHMTVTDLSKKPLLLLDHVTMQFGGLVAVDDFTNEIREGELVGLIGPNGAGKTTVFNVITGIYTPTKGRIVFNDIDITGLRPYQITHLGIARTFQNIRLFSDMTVLENVLVAQHHVLSNPDADRILVKHGKPRKGHGRFWFWRAVTKIGYLKKEKEMVERAKDLIKRVGLEKVMYEKASSLPYGEQRKLEIARALATEPKLILLDEPAAGMNPKETEDLMEFIKQIRKDFNLTVLLIEHDMKVVMGICERIIVMDYGRIIAEGTPKEIQNDPRVIEAYLGREWESV
- soluble on expression in E. coli: not soluble

Sequence: MTRTVSMSTAINEAMKISMRRDENVILIGEDVAGGAQVDHLQDDEAWGGVLGVTKGLVQEFGRNRILDTPISEAGYMGAAMAAAATGLRPIAELMFNDFIGSCLDQVLNQGAKFRYMFGGKAKVPVTVRTMHGAGFSAAAQHSQSLYALFTSIPGIKVVVPSTPYDAKGLLLAAIEDDDPVIFFEDKTLYNMKGEVPEGYYTIPLGKADIKREGSDVTIVAIGKQVHTALAAAEQLAKKGLEVEVIDPRSLSPLDEDTILSSVEKTNRLIVIDEANPRCSIATDIAAIVADRGFDLLDAPIKRITAPHTPVPFSPPLEKLYLPTPEKVIETVSEMIGDQSLLHV
- soluble on expression in E. coli: not soluble

Sequence: MGSDKIHHHHHHMFDWENVRHFLAVARIGTLSGAARSLKVDHATVSRRLSALEDEIKTRLIERLPRACKLTLIGQRVFELAQGMEEDAYAIERFVDASRSPLSGKVSLSAPPVLVAHFLAKHLADFRRVHPGVQLSVSGEARQISLSRREADVALRLVRPEEGTSVVRKLGRMSFDLYASRDYPHLHNPSAWEFISYDAGFTDMPQQKWLMSVARGRPIACEISDINGHLAATQAGAGVAGLPDFLADTDAKLQRVAYDGEPFSRDIWLAVHRDLRRSPHVRAVMDFLLKIVKENPAFTISG
- soluble on expression in E. coli: not soluble

Sequence: MIDMFHINIPFKKDVIIEMGDCGFVDFAKLAEKTELKIACGNVEFSVVNDQKKVRTDDLYHPWSTIPSSYTDIACKVFDAEPRANVFWGYLQLKASPAKVMQGHNVYGSEDFRLCVEYLLDSLQKAQPELWELLDVGLAEMTRIDCTYSIKCANPDILRQTIKQMGNVSNRYIKPARNSDFETTLYFNRATKANPGAGRSFELCIYTKHDEIAHQLADLKRRARQGDSDRFNRIIDELSKPELQAFAANRLRFEGRAKKRFIQKHVGSANLWQVIRHAEQFEAKNGYRFCEWMFKTLFHDLLESLKGEELELYNDSKIKQLLRDAYSTMTPKGNISYAKADRLFRFYMTLCDRGYQELKAHSSKATLHRNMRDLMAIGFSKADLQNLSEGERMPLAQVLNFNFDNQRPANYVEPVSPTALEHHHHHH
- soluble on expression in E. coli: not soluble

Sequence: MSLKFIEEVVVEEFLPTFRSLLAADLRERGLTQHEVAELLGVSQSAVSKYAHGDVTTDDEIAADDRVQELVERTGSGLATGNVSQVQALVEAEVLVRELSTSSDILAERHEAANPALADYDGDFTVHDADSEVRVREHVLSSVRRGVRMLERTSGFATQIPAVGANLVECTPEADTVEDVAGVPGRVLDVMGRTEIPAEPEFGVSAYVATVLLDARAAGVDAHAALNIAYSADTVAALADAGYAVVEFEPEGESTTDDHHIRDAVRDADAVDVLYQTGGYGVEPIVYVLAENAPDAVRMARGLEGHHHHHH
- soluble on expression in E. coli: soluble

Sequence: MKFLHTADWHIGKKLHGFDLLAEQREAFEQILAIAKEEQVDAVVIAGDLYDRSVPAVEAVEIFNEMMIQMNLKEHFPVLAISGNHDSSTRLETGGPWFNQTQFHLNTRLEQAFQPIEIDNTQFYLLPYFEPIAARLYFEDETIRTIQAAMEKVVAKMQESFLPNKKQVLVSHFFVAGSEKTDSETKLTVGGLDVVPTALLEPFDYVALGHLHGKNALQAPNARYSGSPVKFSLSEMTQEKGVWLVETEAEVHFQFRALKPLRDIQQLTGSFQQLTDPAFYQEVNRENYLHVQLTDRAIIPNMMNQLRKIYPKIIGLERLNGRETSSGNQKKVVQIEQRSPEEHLHDFFNDVTGEALTEQQAQWVQEELSTLNQLERGK
- soluble on expression in E. coli: not soluble

Sequence: MSYQVTTLQARKDMARARLGQIPLPRITHIAFGTGGHLPGDVLTPVKPSETATSLEQEVARFPIASAVLKNDTTVEYKVVIPKGALSGVVLTEQALIDQNGKVVAIKTFGAKKKEPEDEFTFTWEEDF
- soluble on expression in E. coli: not soluble

Sequence: MESKLEQNVTAMMSSTGASGITVADSEGVRLHSAGKITDMANVGSLMIADAKNMFPKGTRNKKNSYPIVTLHSSDGSKTTKFLFENLKILNVLFKNQQISYYLLQKPEISGFSYKKSVFFSNFLSENLKIF
- soluble on expression in E. coli: soluble

Sequence: MGSDKIHHHHHHMMPMDWEITFKGITYECINCAYCCSCKGWRIYLNYFDRLKLKDYEYAIEPCEGEFKYRLKVNEKGCVLLNNNLCRIHLEKGYEFKPLMCMIFPFSCMIKWDGTPLLIIKHYCSGIKKGKISKKVVNEAIELIKELYFDMFEEIIENGMEHSSKTEIFENFRVDWEEREDFGRYIFSSKTFDEMFERCREIFGNKINKLNLEEIDEIKNNLQRYNTKENEEEILRYLLELNRREHFRKLPFYREVNKLINIGNYLTKYKNVFKGEGEVDKKLFLNLK
- soluble on expression in E. coli: not soluble

Sequence: MSLKLPVPSPMRLAVTHEGRSIIYIPSPEYAVASGRLEPAWLEVFYNPAMEFNRDVSVVAASALRRTGLLTRSGVAFDAHAGVGVRGVRYAVEAGYVKVIMNDINPKASMLAALNARANGLEPGSYMIFNKESNSLMFHLSRERPTPVSLIDIDPYGSPAPFVDAALALSGKGTVVAMTATDLAVLEGGKARAAVRRYMLRSVSKTPVSKETGLRVLLGYVARVAAAHDKAVKPLLAYYADHYYRVYVAVERGARRSDSMLEENLGRLVYCPETGVALALSYAEDPASACGGSYVVAADPAWIGSLGDQAFLEAMLNIAVEAVWLGTRPRVEKLLNTLHGEAPLSPRSIYVSLTSVASKARVNTPKKSKVVELLRSMGYRAVATHFSGEGVRTDAPWGEVLEAVVKLGSSGEGHHHHHH
- soluble on expression in E. coli: not soluble

Sequence: MGSDKIHHHHHHVTYVRNNALHCGPLPQHVTAPSFRSGTGFYETLLYNGCRLVNADAHMERITRSARACGLHLLPVDLHAAAQMLLDHLGLCGSMARINLFYTLENAPAADASGLCPPLVPAVTAAPYTPPPADKAFRLCRALHGVQSWWHEHKTTAHMGHLMERTHAQAAGYDDAVLHLPDGAILETTTAALIFYNGSRFTAPFPRFRLSSTAEALVKDVLGITYEKITADRLGCMQHAYVLNALMGMRPVRSIDTAEFNPDTDLCNEMTVLIQKAA
- soluble on expression in E. coli: not soluble

Sequence: MEKKANHGDDVQESVPIIHSQVVKIKREFEKIQHPSLKQPEMPLVFREIMGPRRSRSPLGLGERERSIPVGN
- soluble on expression in E. coli: not soluble

Sequence: MGSDKIHHHHHHYTEQPIDLVPTQPLPNASFDNFKLTCSNTKFADDLNQMTGFTKPASRELSVTFFPDLNGDVVAIDYRHYSASFKKGAKLLHKPIVWHINQATTKTTFKPNTWCLRCLWSTKPVDT
- soluble on expression in E. coli: soluble

Sequence: MTLEKFVDALPIPDTLKPVQQSKEKTYYEVTMEECTHQLHRDLPPTRLWGYNGLFPGPTIEVKRNENVYVKWMNNLPSTHFLPIDHTIHHSDSQHEEPEVKTVVHLHGGVTPDDSDGYPEAWFSKDFEQTGPYFKREVYHYPNQQRGAILWYHDHAMALTRLNVYAGLVGAYIIHDPKEKRLKLPSDEYDVPLLITDRTINEDGSLFYPSAPENPSPSLPNPSIVPAFCGETILVNGKVWPYLEVEPRKYRFRVINASNTRTYNLSLDNGGDFIQIGSDGGLLPRSVKLNSFSLAPAERYDIIIDFTAYEGESIILANSAGCGGDVNPETDANIMQFRVTKPLAQKDESRKPKYLASYPSVQHERIQNIRTLKLAGTQDEYGRPVLLLNNKRWHDPVTETPKVGTTEIWSIINPTRGTHPIHLHLVSFRVLDRRPFDIARYQESGELSYTGPAVPPPPSEKGWKDTIQAHAGEVLRIAATFGPYSGRYVWHCHILEHEDYDMMRPMDITDPHK
- soluble on expression in E. coli: soluble

Reference: the DeepSol protein solubility set
